{"source": "paper PMC9401524", "about": "(Cancer Discovery, 2021)", "key": {"EGFR-mutated NSCLC": {"tested_on": "EGFR-mutated NSCLC", "conditions": "cited from earlier work"}, "[1]": {"assay": "Phase I study U31402-A-U102, HER3-DXd i.v. once every 3 weeks: safety", "assay_type": "in vivo, human"}, "[2]": {"conditions": "all patients 3.2/4.8/5.6/6.4 mg/kg (n = 81)"}}, "note": "Marks after values point to notes of the source that are not given here.", "data": [{"molecule": "C=CC(=O)Nc1cc(Nc2nccc(-c3cn(C)c4ccccc34)n2)c(OC)cc1N(C)CCN(C)C", "note": "[osimertinib, reference compound]", "values": [{"measurement": "Median OS", "setting": "EGFR-mutated NSCLC; third-generation EGFR TKI compared with first-generation EGFR TKIs", "value": 38.6, "unit": "months"}]}, {"molecule": "Patritumab deruxtecan [HER3-DXd]", "values": [{"measurement": "Patients who experienced dose-limiting toxicities", "setting": "[1]; 4.8 mg/kg dose group, grade 3 neutrophil count decreased, grade 4 platelet count decrease, white blood cell count decrease", "value": 1, "unit": "patient"}, {"measurement": "Patients who experienced dose-limiting toxicities", "setting": "[1]; 6.4 mg/kg dose group, grade 4 platelet count decrease", "value": 3, "unit": "patients"}, {"measurement": "Patients who experienced dose-limiting toxicities", "setting": "[1]; […] dose group, grade 3 febrile neutropenia and grade 4 platelet count decrease", "value": 1, "unit": "patient"}, {"measurement": "Adjudicated treatment-related ILD, patients", "setting": "[1]; all doses (4/81)", "value": 5, "unit": "%"}, {"measurement": "TEAEs associated with death, patients", "setting": "[1]; all doses (5/81), none judged related to study treatment", "value": 6, "unit": "%"}, {"measurement": "Treatment discontinued due to TEAEs, patients", "setting": "[1]; all doses (7/81)", "value": 9, "unit": "%"}, {"measurement": "Grade 4 thrombocytopenia, patients", "setting": "[1]; all doses (11/81)", "value": 13.6, "unit": "%"}, {"measurement": "Grade ≥3 neutropenia, patients", "setting": "[1]; all doses (12/81)", "value": 15, "unit": "%"}, {"measurement": "TEAEs associated with dose reduction, patients", "setting": "[1]; all doses (18/81)", "value": 22, "unit": "%"}, {"measurement": "Grade ≥3 thrombocytopenia, patients", "setting": "[1]; all doses (21/81)", "value": 26, "unit": "%"}, {"measurement": "TEAEs associated with dose interruption, patients", "setting": "[1]; all doses (30/81)", "value": 37, "unit": "%"}, {"measurement": "TEAE nausea, patients", "setting": "[1]; all doses (49/81)", "value": 60, "unit": "%"}, {"measurement": "Grade ≥3 TEAEs, patients", "setting": "[1]; all doses (52/81)", "value": 64, "unit": "%"}, {"measurement": "TEAE fatigue, patients", "setting": "[1]; all doses (52/81)", "value": 64, "unit": "%"}, {"measurement": "Adjudicated ILD", "setting": "[1]; [2]", "value": "5 (6)^e n (%)"}, {"measurement": "Adjudicated treatment-related ILD", "setting": "[1]; [2]", "value": "4 (5)^f n (%)"}, {"measurement": "Any TEAE", "setting": "[1]; [2]", "value": "81 (100) n (%)"}, {"measurement": "Grade ≥3 TEAE: Anemia/hemoglobin decrease", "setting": "[1]; [2]", "value": "6 (7) n (%)"}, {"measurement": "Grade ≥3 TEAE: Dyspnea", "setting": "[1]; [2]", "value": "5 (6) n (%)"}, {"measurement": "Grade ≥3 TEAE: Fatigue", "setting": "[1]; [2]", "value": "8 (10) n (%)"}, {"measurement": "Grade ≥3 TEAE: Febrile neutropenia", "setting": "[1]; [2]", "value": "5 (6) n (%)"}, {"measurement": "Grade ≥3 TEAE: Hypokalemia", "setting": "[1]; [2]", "value": "4 (5) n (%)"}, {"measurement": "Grade ≥3 TEAE: Hypoxia", "setting": "[1]; [2]", "value": "5 (6) n (%)"}, {"measurement": "Grade ≥3 TEAE: Lymphocyte count decrease/lymphopenia", "setting": "[1]; [2]", "value": "4 (5) n (%)"}, {"measurement": "Grade ≥3 TEAE: Neutrophil count decrease/neutropenia", "setting": "[1]; [2]", "value": "12 (15) n (%)"}, {"measurement": "Grade ≥3 TEAE: Platelet count decrease/thrombocytopenia", "setting": "[1]; [2]", "value": "21 (26) n (%)"}, {"measurement": "Grade ≥3 TEAE: White blood cell count decrease/leukopenia", "setting": "[1]; [2]", "value": "5 (6) n (%)"}, {"measurement": "Grade ≥3 TEAEs", "setting": "[1]; [2]", "value": "52 (64) n (%)"}, {"measurement": "Grade ≥3 treatment-related TEAEs", "setting": "[1]; [2]", "value": "38 (47) n (%)"}, {"measurement": "Serious TEAEs", "setting": "[1]; [2]", "value": "32 (40) n (%)"}, {"measurement": "Serious treatment-related TEAEs", "setting": "[1]; [2]", "value": "15 (19) n (%)"}, {"measurement": "TEAEs associated with death", "setting": "[1]; [2]", "value": "5 (6)^d n (%)"}, {"measurement": "TEAEs associated with dose interruption", "setting": "[1]; [2]", "value": "30 (37) n (%)"}, {"measurement": "TEAEs associated with dose reduction", "setting": "[1]; [2]", "value": "18 (22) n (%)"}, {"measurement": "TEAEs associated with treatment discontinuation", "setting": "[1]; [2]", "value": "7 (9)^b n (%)"}, {"measurement": "Treatment-related TEAEs", "setting": "[1]; [2]", "value": "78 (96) n (%)"}, {"measurement": "Treatment-related TEAEs associated with death", "setting": "[1]; [2]", "value": "0 n (%)"}, {"measurement": "Patients who experienced dose-limiting toxicities", "setting": "[1]; dose escalation part, 36 patients", "value": 5, "unit": "patients"}, {"measurement": "Recommended dose for expansion (RDE)", "setting": "[1]; i.v. once every 3 weeks", "value": 5.6, "unit": "mg/kg"}, {"measurement": "TEAEs associated with dose interruption", "setting": "[1]; pooled RDE […] (n = 57)", "value": "21 (37) n (%)"}, {"measurement": "TEAEs associated with dose reduction", "setting": "[1]; pooled RDE […] (n = 57)", "value": "12 (21) n (%)"}]}, {"molecule": "seribantumab (antibody, chains of the INN, looked up) heavy: EVQLLESGGGLVQPGGSLRLSCAASGFTFSHYVMAWVRQAPGKGLEWVSSISSSGGWTLYADSVKGRFTISRDNSKNTLYLQMNSLRAEDTAVYYCTRGLKMATIFDYWGQGTLVTVSSASTKGPSVFPLAPCSRSTSESTAALGCLVKDYFPEPVTVSWNSGALTSGVHTFPAVLQSSGLYSLSSVVTVPSSNFGTQTYTCNVDHKPSNTKVDKTVERKCCVECPPCPAPPVAGPSVFLFPPKPKDTLMISRTPEVTCVVVDVSHEDPEVQFNWYVDGVEVHNAKTKPREEQFNSTFRVVSVLTVVHQDWLNGKEYKCKVSNKGLPAPIEKTISKTKGQPREPQVYTLPPSREEMTKNQVSLTCLVKGFYPSDIAVEWESNGQPENNYKTTPPMLDSDGSFFLYSKLTVDKSRWQQGNVFSCSVMHEALHNHYTQKSLSLSPG light: QSALTQPASVSGSPGQSITISCTGTSSDVGSYNVVSWYQQHPGKAPKLIIYEVSQRPSGVSNRFSGSKSGNTASLTISGLQTEDEADYYCCSYAGSSIFVIFGGGTKVTVLGQPKAAPSVTLFPPSSEELQANKATLVCLVSDFYPGAVTVAWKADGSPVKVGVETTKPSKQSNNKYAASSYLSLTPEQWKSHRSYSCRVTHEGSTVEKTVAPAECS", "values": [{"measurement": "Efficacy of unconjugated HER3 antibody", "setting": "EGFR-mutated NSCLC; in combination with erlotinib", "value": "did not confer clinically meaningful efficacy"}]}]}
